{
  "source": "paper PMC7746637",
  "about": "(Nature chemical biology, 2020)",
  "molecules": {"B1": {"name": "K2P4.1b (residues 1-290) as a C-terminal fusion to mCherry, Strep-tag II and His6 (pPIC-K2P4.1b-mC-S-H) (domain or fragment, human, UniProt Q9NYG8-2 1-290, looked up)", "chain": "MTTAPQEPPARPLQAGSGAGPAPGRAMRSTTLLALLALVLLYLVSGALVFRALEQPHEQQAQRELGEVREKFLRAHPCVSDQELGLLIKEVADALGGGADPETQSTSQSSHSAWDLGSAFFFSGTIITTIGYGNVALRTDAGRLFCIFYALVGIPLFGILLAGVGDRLGSSLRHGIGHIEAIFLKWHVPPELVRVLSAMLFLLIGCLLFVLTPTFVFCYMEDWSKLEAIYFVIVTLTTVGFGDYVAGADPRQDSPAYQPLVWFWILLGLAYFASVLTTIGNWLRVVSRRT"}, "B2": {"name": "K2P4.1b (TRAAK, longer isoform, truncated, residues 1-290), expressed with tags at both termini, tags removed (domain or fragment, human, UniProt Q9NYG8-2 1-290, looked up)", "chain": "B1 chain"}},
  "assay_in_all_cases": "native MS",
  "key": {"[1]": {"molecular_target": "K2P4.1a (TRAAK, shorter isoform, truncated, residues 1-264), tags removed (human)"}, "[2]": {"molecular_target": "the molecule itself"}, "[3]": {"molecular_target": "the molecule itself", "remark": "listed apart in the source"}},
  "note": "Where two headings read alike, the source gives them in different places.",
  "data": [
    {"molecule": "K2P4.1a (TRAAK, shorter isoform, truncated, residues 1-264), tags removed (domain or fragment)", "values": [
      {"measurement": "stoichiometry N", "setting": "[1]", "value": 2}
    ]},
    {"molecule": "B1", "values": [
      {"measurement": "stoichiometry N", "setting": "[2]", "value": 2}
    ]},
    {"molecule": "B2", "values": [
      {"measurement": "stoichiometry N", "setting": "[3]", "value": 2}
    ]}
  ]
}
